Assay results reported in paper PMC9927934.

Target: L973F mutant human insulin receptor B isoform, FLAG tagged (human)

B1: Shc (natural protein)
chain: MDLLPPKPKYNPLRNESLSSLEEGASGSTPPEELPSPSASSLGPILPPLPGDDSPTTLCSFFPRMSNLKLANPAGGRLGPKGEPGKAAEDGEGSAGAALRDSGLLPLLQDMNKLSGGGGRRTRVEGGQLGGEEWTRHGSFVNKPTRGWLHPNDKVMGPGVSYLVRYMGCVEVLQSMRALDFNTRTQVTREAISLVCEAVPGAKGATRRRKPCSRPLSSILGRSNLKFAGMPITLTVSTSSLNLMAADCKQIIANHHMQSISFASGGDPDTAEYVAYVAKDPVNQRACHILECPEGLAQDVISTIGQAFELRFKQYLRNPPKLVTPHDRMAGFDGSAWDEEEEEPPDHQYYNDFPGKEPPLGGVVDMRLREGAARPTLPSAQMSSHLGATLPIGQHAAGDHEVRKQMLPPPPCPGRELFDDPSYVNIQNLDKARQAGGGAGPPNPSLNGSAPRDLFDMKPFEDALRVPPPPQSMSMAEQLQGEPWFHGKLSRREAEALLQLNGDFLVRESTTTPGQYVLTGLQSGQPKHLLLVDPEGVVRTKDHRFESVSHLISYHMDNHLPIISAGSELCLQQPVDRKV
Shc phosphorylation in L973F-IR cells against WT-IR cells, immunoblot, 1 to 100 nM insulin for 15 minutes (printed together with Gab-1 and ERK phosphorylation): 2 to 4 fold
